{
  "source": "paper PMC9908889",
  "key": {"MORF WH2 (Homo sapiens) [1]": {"system": "MORF WH2 (Homo sapiens)", "test": "EMSA", "conditions": "EMSA: 20-25 mM Tris-HCl pH 7.5, 20-150 mM NaCl, 0-0.2 mM EDTA, 0-5 mM DTT, 0-20% glycerol, 4 C, NCP197 EMSA: 10 mM Tris, 1 mM EDTA, 10 mM NaCl, 1 mM TCEP, FP: …"}, "MORF WH1 (Homo sapiens) [2]": {"molecular_target": "T1, MORF WH1 (Homo sapiens) (UniProt Q8WYB5)", "T1 sequence": "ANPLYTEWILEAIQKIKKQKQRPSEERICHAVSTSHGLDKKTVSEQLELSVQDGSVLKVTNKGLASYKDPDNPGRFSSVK", "test": "EMSA", "conditions": "His-tagged; EMSA: 20-25 mM Tris-HCl pH 7.5, 20-150 mM NaCl, 0-0.2 mM EDTA, 0-5 mM DTT, 0-20% glycerol, 4 C; NCP197 EMSA: 10 mM Tris, 1 mM EDTA, 10 mM NaCl, 1 mM TCEP; FP: …"}, "MORF WH1 (Homo sapiens) [3]": {"molecular_target": "T1, MORF WH1 (Homo sapiens)", "test": "fluorescence polarization", "conditions": "EMSA: 20-25 mM Tris-HCl pH 7.5, 20-150 mM NaCl, 0-0.2 mM EDTA, 0-5 mM DTT, 0-20% glycerol, 4 C; NCP197 EMSA: 10 mM Tris, 1 mM EDTA, 10 mM NaCl, 1 mM TCEP; FP: …"}, "[4]": {"molecular_target": "T2, MORF WH1-WH2 (Homo sapiens) (UniProt Q8WYB5)", "T2 sequence": "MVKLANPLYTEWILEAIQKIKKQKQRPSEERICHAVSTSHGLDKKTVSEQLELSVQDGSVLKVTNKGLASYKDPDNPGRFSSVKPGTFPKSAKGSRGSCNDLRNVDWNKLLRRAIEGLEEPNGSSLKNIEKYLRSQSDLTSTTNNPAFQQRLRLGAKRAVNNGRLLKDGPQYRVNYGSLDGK", "test": "fluorescence polarization", "conditions": "EMSA: 20-25 mM Tris-HCl pH 7.5, 20-150 mM NaCl, 0-0.2 mM EDTA, 0-5 mM DTT, 0-20% glycerol, 4 C; NCP197 EMSA: 10 mM Tris, 1 mM EDTA, 10 mM NaCl, 1 mM TCEP; FP: …"}, "MORF WH2 (Homo sapiens) [5]": {"system": "MORF WH2 (Homo sapiens)", "test": "fluorescence polarization", "conditions": "EMSA: 20-25 mM Tris-HCl pH 7.5, 20-150 mM NaCl, 0-0.2 mM EDTA, 0-5 mM DTT, 0-20% glycerol, 4 C, NCP197 EMSA: 10 mM Tris, 1 mM EDTA, 10 mM NaCl, 1 mM TCEP, FP: …"}},
  "data": [
    {"substance": "A-DNA15 (15 bp A-rich)", "values": [
      {"measurement": "Kd", "setting": "MORF WH2 (Homo sapiens) [1]; source data name GST-MORF WH2", "value": 7.8, "unit": "µM"}
    ]},
    {"substance": "C-DNA15 (15 bp C-rich)", "values": [
      {"measurement": "Kd", "setting": "MORF WH2 (Homo sapiens) [1]", "value": 18, "unit": "µM"}
    ]},
    {"substance": "CpG-DNA16", "values": [
      {"measurement": "Kd", "setting": "MORF WH1 (Homo sapiens) [2]", "value": 2, "unit": "µM"}
    ]},
    {"substance": "DNA147 (601 Widom)", "values": [
      {"measurement": "K half", "setting": "MORF WH1 (Homo sapiens) [3]", "value": 15, "unit": "µM"},
      {"measurement": "K half", "setting": "[4]", "value": 62, "unit": "nM"}
    ]},
    {"substance": "NCP147", "values": [
      {"measurement": "K half", "setting": "MORF WH1 (Homo sapiens) [3]", "value": 9, "unit": "µM"},
      {"measurement": "K half", "setting": "[4]", "value": 12, "unit": "nM"},
      {"measurement": "K half", "setting": "MORF WH2 (Homo sapiens) [5]", "value": 1000, "unit": "nM"}
    ]},
    {"substance": "NCP207", "values": [
      {"measurement": "K half", "setting": "MORF WH1 (Homo sapiens) [3]", "value": 0.3, "unit": "µM"},
      {"measurement": "K half", "setting": "[4]", "value": 7, "unit": "nM"},
      {"measurement": "K half", "setting": "MORF WH2 (Homo sapiens) [5]; text says NCP187, source data and Methods say NCP207", "value": 1400, "unit": "nM"}
    ]}
  ]
}
